± gives the half width of the 95% confidence interval.
Test: folding stability dG unfold (combined trypsin and chymotrypsin); higher = more stable
Protocol: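 Folding stability of de novo designed mini-proteins (<80 aa, no Cys; designed by TrROS, TrMRF, ProteinMPNN and the joint model) was measured by cDNA display proteolysis with trypsin and chymotrypsin. Each protease was used at 11 concentrations in a threefold dilution series plus a no-protease condition. K50 was inferred by Bayesian fitting of sequencing counts, and dG unfold was derived against a sequence-predicted unfolded-state K50 (Tsuboyama et al. method). Sequences shown include variable-length N-terminal GS-type padding (SAGGSAGG...) inside a display construct carrying a PA tag. Rows were kept only if the AF2 dimer inter-PAE was >15, to exclude likely homo-oligomers.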

| Sequence | folding stability dG unfold [kcal/mol] |
| --- | --- |
| SAGGDNVKLRFYDPNGRLKIDEINPENGNIKVEYEGPGKPRERTVDADPDEAIDEIADNFPFPLEIEKSAGG [r13_141_TrROS] | < -1 |
| SAGGSVLPPDAVVYGTETRPFPNGETVEVERERRFPPRPPAPAGVLVEYPDGTVVPAPSPEEAAALLSAGGS [r16_580_JUSTAS] | < -1 |
| SAGGSAGGSGMEPTFVPVEEIYYNPESNEISKTKSTVVIPPDGTVETFTTTEKFKKPPNASLESAGGSAGGS [r12_116_JUSTAS] | < -1 |
| SIEITFRHDNYRVPVKIDPDDPKIKIEVYPDPENGEMQPLTEEDMENFAQEIADELREQRKQQRKEGKPPSA [r9_368_TrROS] | < -1 |
| SAGGSAGGSAGGSVIMVNSPEWAKEFAGAMMQEKSRKHGEPMTPDDVPVEIEVYDPEDWSAGGSAGGSAGGS [r4_498_TrROS] | < -1 |
| SAGGSAGGSAPEFVVEGSEEEAEAVFERIKAERPEEFEATDISTVSAVPPVPRYTPEGVLVSAGGSAGGSAG [r3_89_JUSTAS] | < -1 |
| SAGGSAGGSAKHDVKIDDVERMPNPYRFTITFPGNGKPIPIPFRPNMSIDEMKKEAKELAKSAGGSAGGSAG [r3_142_TrROS] | < -1 |
| SAGGGMMVNLKFESPTSSSTVPLPVVEIRRLPSPEYEEVVVPDGTRYLFNPKTNTLLEEKEVPPLEELSAGG [r13_636_JUSTAS] | < -1 |
| SAGGSAFKVPPGNIKEEEDFKFKFPDGNNMKIKIIRYPGKKRLMMENPGNNEPQTMPVEDLKEMLQSAGGSA [r15_329_TrROS] | < -1 |
| SAGGSAGGSAGIKVDQNPESNMFSVKIRNDGKEKTIEIDMPPGEPPDIDDLAKKLGIEVVSAGGSAGGSAGG [r11_1053_TrROS] | < -1 |
| SAGGSAGGSAGGVVSPSSEPVEMTVEEVILETERVPESGESLRPLPVRRVLRTVTNFGLSAGGSAGGSAGGS [r10_122_JUSTAS] | < -1 |
| SAGGFKPRTINIPAKPGALRNILNDLREKSPNYMVHVTNPDKGKPRHWPLDDLKDMPGPFEFRVMKMPKSAG [r5_437_TrROS] | < -1 |
| SAGGSAGGSAGGSTKTIMLDSPEKVEELVEEAMEKGDPITIEYHDPGEGKPFEFKFPVKSAGGSAGGSAGGS [r4_188_TrROS] | < -1 |
| SAGMPRLVTVEMVVLRVVPVYDPEGKPVREEPREERRTRTAPLAEAQAEIDALPPDEEVTEILRVEPESAGG [r19_114_JUSTAS] | < -1 |
| SAGFEKIAEKLGVKPENLEIKDIEDKPVTVPDPKTGKPKERLVPVLYLEFYDPEVGKKVDAEIPLAEVASAG [r5_517_TrMRF] | < -1 |
| SAGGSAGGSLVELEEEDPSVPVRRRYFIEKPSDGKVKVKEETVVPEPGEVVRSERVISLEEFEKSAGGSAGG [r6_652_JUSTAS] | < -1 |
| SAGGSAGGSAGGSKLPPGAKVKIRFPNNNKEHEIKSPEQIKTFEIDGREMKIRKIEVEDSAGGSAGGSAGGS [r4_214_TrROS] | < -1 |
| SAGGPAEVKIPIMKMEPPKPERVYDPDDGQERWKMEHQMRMEMIPITIRADDNPEEANDIANDFGITSAGGS [r16_467_TrROS] | < -1 |
| SAKITITLPNGKKIEIELPEGYEIVEVTFDKETGVITIKVKNKETGKEYKITLTFNEDGSLTISIEEVDSAG [r14_311_TrROS_Hall] | > 6 |

| Sequence | folding stability dG unfold [kcal/mol] |
| --- | --- |
| SAGGGSMVETRTLEVEEVEDGTVTLSRTLYPGGLVRLTRTRVPPADPSVAEEVETELVYVSPEEAAASAGGS [r16_161_JUSTAS] | < -1 |
| SAGGSAGGSAYFVRIDNGPTIPIPGMSPDEAKEQLKEYLPPPNKENLKITDVYSPDNGKPLSAGGSAGGSAG [r3_340_TrROS] | < -1 |
| SAGGMKKRVEIPEELKKAYPDLVVEDQEVPEDSVDVTVRLPTADLKVPQVVLSPDGNPLRSFTLTSSPSAGG [r13_129_JUSTAS] | < -1 |
| SAGGSAGGGMITVPLSEEISMANLPEEERAAGEELGPGSVIRKLLEIKKYPVKPFRFIEKDKILSAGGSAGG [r6_547_JUSTAS] | < -1 |
| SAGGSAGGSYKLGSKLIKEVTSEATPGPSTLETITLEDKTYPITLVGDSLNISPELKKAIELNSAGGSAGGS [r20_92_JUSTAS] | < -1 |
| SAGGSAGGSAGGGPDWVLRRRTLEESSPVSTTPNPTGRRRTGYRTLVREEEVVLPPDLESAGGSAGGSAGGS [r10_524_JUSTAS] | < -1 |
| SAGGSAGGVRVRVVYPDGEPIGEIDIQLPPEMPQDQRQVKELAENIASRFKENGRKVKVEIEPPSAGGSAGG [r6_884_TrROS] | < -1 |
| SAGGSAGGSAGGTAEEIRDIFEEHGMEVEVEVTPDNVTIQYEMPNGKKREFRIPADDLKSAGGSAGGSAGGS [r10_1029_TrROS] | < -1 |
| SAGGSAMFEVRKLSEDPSTGVTTELITLPDGKEVTVTTTTDSSGNPTVTVTFPDGTVLSLEEVELESAGGSA [r15_832_JUSTAS] | < -1 |
| SKSRPIEVEFRMPYPNGGPMRMRATVLINPDNGKIGIPMRMETPGKEREYPLPPSMMNNLAKTVLDKLGLSA [r9_1136_TrROS] | -0.789 ± 0.81 |
| SAGMIVKTVTVSPEVPPEEVAERLKRENPWIKEVKPEKVTSVTVPNPGKTLLTVTITIELDDVPEEVLKSAG [r5_326_JUSTAS] | < -1 |
| SAGGSAMIEVETRPLPTPRELVTVKFDSEELLPEVIEKLPGVEEVEVSESKGDGKPYYTATFVIPRSAGGSA [r15_344_JUSTAS] | < -1 |
| SAGGSAGGSMKTVTIEVKRPSPDITLEDIKEELLKKNPEVEEVEVEEYPEEGLYKVKVTIKPKSAGGSAGGS [r20_31_JUSTAS] | < -1 |
| SAGGMKTIKRKSKFIKPGKGLSIDRTTELLPGGEVLEPLTFKNPKNGEKIKSFTIRIDPNGNETVENSAGGS [r16_239_JUSTAS] | < -1 |
| SAGGSAGGSAIVEKIAKEFGFPAKIEVKRERNPGKWVVIPVRVRDPNGGKTWERKIHLPPNQSAGGSAGGSA [r18_313_TrROS] | < -1 |
| SAGGSAPDFKIKDIKIPHRRNPNGMYRVEIKLEVPDGRKIPIEVPYNEDGKPTPEQIENAAKELAKSAGGSA [r15_233_TrROS] | < -1 |
| SAGGSTVVTEVSVSPGNPTLTLDSKTPDGKVVAKRVAAPADATATFEVKQTINGNPVITTVTQAPEASAGGS [r16_672_JUSTAS] | < -1 |
| SAGGSAGGSAMLVELEAGRVIEVPDATPEETRERVRAAVPPEVADEVRIVRAYDPERPVELSAGGSAGGSAG [r3_340_JUSTAS] | < -1 |
| SAGGSAGGSAGSMTVTVLEVVPGVPEVVLRRGDTEIRVPASRYTLERDADTTTLVVPEAASAGGSAGGSAGG [r17_403_JUSTAS] | < -1 |

| Sequence | folding stability dG unfold [kcal/mol] |
| --- | --- |
| SAGGSATTTEKWTIGDPSGPPRTVDLTKLPNSDEYLITVTYPDPNHTETGLLSEEEIKKIPNAVPKSAGGSA [r15_622_JUSTAS] | < -1 |
| SAGGSAGGSASAWEQYPNTTPGTTSKTDDVTVRTLTFPNPTTVVTVTEFPGGEVTVTTVPTPSAGGSAGGSA [r18_26_JUSTAS] | < -1 |
| SAGGSAGGSAIKIPPGYWVRGEFPNVTRHIPIDDIDELKKTFPGNPIRDIEVYDPEDGKPISAGGSAGGSAG [r3_134_TrROS] | < -1 |
| SAGGSAGGEKTASFKVKGNLVAKGVTTFYSPTSDEYTIETEIEKVPPGPKPEITPEEIAKNYLLSAGGSAGG [r6_148_JUSTAS] | < -1 |
| SPTLPFPFPDGHPYMIHLNPEKNEIHIHNPESGRPYRIKVPGGKERRIPAGADSLDELKDLPPLKIEPMPSA [r9_205_TrROS] | < -1 |
| SYPRDPSGKITAKITITRDPDGIYRAEIDVVDKDNKPLARASAPYENPYPGVARLKEEAEALAEELEKKKSA [r9_739_TrMRF] | < -1 |
| SAGGSAGGSAMNVKFFKLSENELRIEYNEIEEFEDGSLSEEIKTEILKLNLPEDDKKVKELLSAGGSAGGSA [r18_215_JUSTAS] | < -1 |
| SAGGSAGGSMVEVVVRPPGGPEYRVSPETSPEEVRARVEAEAGPPPEIEISEEEAKALGVPARSAGGSAGGS [r12_379_JUSTAS] | < -1 |
| SNTIMIMANVPPGPVRIKIEPKNGRRYEMPIPPGEPVMFHIPIPPGLPPGNKWKIEVENPDNGKEQEKDFSA [r9_275_TrROS] | < -1 |
| SATTTTETLPDGGVLTTTTLPDGSPATGLIDPANGAPFTATHPNGLRTVWSQSPSGKVTTLSTTNVPPSSAG [r14_877_JUSTAS] | < -1 |
| DMDFKVEDIKVDPDDGKVKIEMPIPNPNMPIAIFAPNGKIKDVKWEHYKEDGRMKIEIPVKSPDEVRAFIFS [r1_138_TrROS] | < -1 |
| SAGGSPPLVVEEELLSEKTLPEPGTGTVTLTRRTIRDPTADVEWEERFTVTTPPDGSVEVSSTRERLLSAGG [r13_917_JUSTAS] | < -1 |
| SAGGSAGGSAGDNGKPEVKPVRIPIFIPGPKEQAKRIANYLYGFGMPIDVEVFDPDGKPISAGGSAGGSAGG [r11_703_TrROS] | < -1 |
| SAGGTVREIKEILKEKGWPVKNVEPGPNGNYTVQLRRPRGKPFKINIPSDNPEEQQALREAIPPDFVSAGGS [r16_821_TrROS] | < -1 |
| SSAEEVARARFEAAGWDWRPLARDPVKRTVRFEVRPPDRPPRLYEVVVDPSRDTVNLEEDPATGRVVVPGSA [r9_1119_JUSTAS] | < -1 |
| SAGGSAGGSGMPVVLLEATFDPNNPGTTYRLTTVDPNTGGVAESEIPASEAEARGLGPLDVLESAGGSAGGS [r12_123_JUSTAS] | < -1 |
| SAGGSAGGSDKFKIDNIYPDPDMWVYRIKFPKGKSHTFPIPEENIDEFAEDDGFNVEPLGPVPSAGGSAGGS [r12_676_TrROS] | < -1 |
| SAGGSAGGSAGPPGEPKPKPERKTVHINIPYPPGHPEMREKARELANELQDEGAKVEIYWSAGGSAGGSAGG [r11_519_TrROS] | < -1 |
| DNMDMEPEGYDPDNGHYEWEMRTDNQWTEMTMRPKPRIPIPLEELKNIADYLADQNPDNKEKAEKIAEKLAS [r1_330_TrROS] | < -1 |

Reference: the supplement of paper PMC12764529
